Assay results as given in PMC10450164.

Legend:
Experiment in all cases: ITC
TFAP2B DBD-HSH WT = TFAP2B DBD-HSH WT (Homo sapiens, UniProt Q92481 219-457)
TFAP2A DBD-HSH WT = TFAP2A DBD-HSH WT (Homo sapiens, UniProt P05549 203-420)
TFAP2B R285Q = TFAP2B R285Q (Homo sapiens, UniProt Q92481 219-457, R285Q)
TFAP2A G262E = TFAP2A G262E (Homo sapiens, UniProt P05549 203-420, G262E)
TFAP2A R217S = TFAP2A R217S (Homo sapiens, UniProt P05549 203-420, R217S)
TFAP2B K276R = TFAP2B K276R (Homo sapiens, UniProt Q92481 219-457, K276R)
TFAP2B L284S = TFAP2B L284S (Homo sapiens, UniProt Q92481 219-457, L284S)
TFAP2B R300C = TFAP2B R300C (Homo sapiens, UniProt Q92481 219-457, R300C)
TFAP2B V336I = TFAP2B V336I (Homo sapiens, UniProt Q92481 219-457, V336I)
TFAP2B R236C = TFAP2B R236C (Homo sapiens, UniProt Q92481 219-457, R236C)
Chain of TFAP2B R236C (Q92481 219-457 R236C): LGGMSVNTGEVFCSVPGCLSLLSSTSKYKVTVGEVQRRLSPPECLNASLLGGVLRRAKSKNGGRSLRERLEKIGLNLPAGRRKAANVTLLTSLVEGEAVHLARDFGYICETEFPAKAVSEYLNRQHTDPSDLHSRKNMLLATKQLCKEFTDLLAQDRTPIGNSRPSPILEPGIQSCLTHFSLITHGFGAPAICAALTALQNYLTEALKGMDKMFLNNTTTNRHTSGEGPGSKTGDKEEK

Chain of TFAP2A DBD-HSH WT (P05549 203-420): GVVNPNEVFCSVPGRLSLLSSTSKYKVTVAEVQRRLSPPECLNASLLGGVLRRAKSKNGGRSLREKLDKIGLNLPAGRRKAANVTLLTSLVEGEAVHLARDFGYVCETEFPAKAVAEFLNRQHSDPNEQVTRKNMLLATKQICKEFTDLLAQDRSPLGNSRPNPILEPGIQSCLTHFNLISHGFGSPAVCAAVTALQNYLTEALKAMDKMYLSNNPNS
Chain of TFAP2B DBD-HSH WT (Q92481 219-457): as the sequence (Q92481 219-457 R236C) above, with C18R counted along it
Chain of TFAP2B L284S (Q92481 219-457 L284S): as the sequence (Q92481 219-457 R236C) above, with C18R, L66S counted along it
Chain of TFAP2B R285Q (Q92481 219-457 R285Q): as the sequence (Q92481 219-457 R236C) above, with C18R, R67Q counted along it
Chain of TFAP2A G262E (P05549 203-420 G262E): as the sequence (P05549 203-420) above, with G60E counted along it
Chain of TFAP2B K276R (Q92481 219-457 K276R): as the sequence (Q92481 219-457 R236C) above, with C18R, K58R counted along it
Chain of TFAP2B V336I (Q92481 219-457 V336I): as the sequence (Q92481 219-457 R236C) above, with C18R, V118I counted along it
Chain of TFAP2A R217S (P05549 203-420 R217S): as the sequence (P05549 203-420) above, with R15S counted along it
Chain of TFAP2B R300C (Q92481 219-457 R300C): as the sequence (Q92481 219-457 R236C) above, with C18R, R82C counted along it

Binder | Kd (TFAP2B DBD-HSH WT) | Kd (TFAP2A DBD-HSH WT) | other results
cCC/GGg (dsDNA) DNA 1: GTCCCCGAGGGAG DNA 2: CTCCCTCGGGGAC | 355 ± 57 nM | 336 ± 53 nM | –
GCt/GGC (dsDNA) DNA 1: GTGCTCGAGGCAG DNA 2: CTGCCTCGAGCAC | 461 ± 71 nM | 694 ± 71 nM | –
TGA (dsDNA) DNA 1: GTGCCTGAGGCAG DNA 2: CTGCCTCAGGCAC | 19 ± 2 nM | 17 ± 1 nM | –
GmCC/GGC (dsDNA, methylcytosine at position 4 of strand 1; second strand methylation not stated) DNA 1: GTGCCCGAGGCAG DNA 2: CTGCCTCGGGCAC | 299 ± 22 nM | 347 ± 3 nM | –
CGA (GCC(N3)GGC) (dsDNA) DNA 1: GTGCCCGAGGCAG DNA 2: CTGCCTCGGGCAC | 18 ± 2 nM | 19 ± 1 nM | Kd (TFAP2B R285Q): 178 ± 43 nM; Kd (TFAP2A G262E): 129 ± 22 nM; binding result (TFAP2A R217S): no binding; Kd (TFAP2B K276R): 382 ± 36 nM; binding result (TFAP2B L284S): no binding; Kd (TFAP2B R300C): 88 ± 20 nM; Kd (TFAP2B V336I): 44 ± 9 nM; binding result (TFAP2B R236C): no binding
aCC/GGC (dsDNA) DNA 1: GTACCCGAGGCAG DNA 2: CTGCCTCGGGTAC | 313 ± 69 nM | 373 ± 46 nM | –
N4 (4 bp spacer) (dsDNA) DNA 1: GTGCCCGATGGCAG DNA 2: CTGCCATCGGGCAC | 340 ± 17 nM | 341 ± 20 nM | –
GCmC/GGC (dsDNA, methylcytosine at position 5 of strand 1; second strand methylation not stated) DNA 1: GTGCCCGAGGCAG DNA 2: CTGCCTCGGGCAC | 126 ± 12 nM | 107 ± 3 nM | –
tCC/GGC (dsDNA) DNA 1: GTTCCCGAGGCAG DNA 2: CTGCCTCGGGAAC | 248 ± 49 nM | 565 ± 87 nM | –
cCC/GGC (dsDNA) DNA 1: GTCCCCGAGGCAG DNA 2: CTGCCTCGGGGAC | 55 ± 7 nM | 78 ± 16 nM | –
